Test results: patent US12303551B2, “Cellular immunotherapy compositions and uses thereof” (CERO THERPEUTICS HOLDINGS, INC., priority 2018, dated 2025)

B1: CER117: Chimeric engulfment receptor: Tim4 binding, Tim4 transmembrane, TLR8 and TRAF6 signaling; SEQ ID NO: 153 (protein)
chain: MSKGLLLLWLVTELWWLYLTPAASEDTIIGFLGQPVTLPCHYLSWSQSRNSMCWGKGSCPNSKCNAELLRTDGTRIISRKSTKYTLLGKVQFGEVSLTISNTNRGDSGVYCCRIEVPGWFNDVKKNVRLELRRATTTKKPTTTTRPTTTPYVTTTTPELLPTTVMTTSVLPTTTPPQTLATTAFSTAVTTCPSTTPGSFSQETTKGSAFTTESETLPASNHSQRSMMTISTDIAVLRPTGSNPGILPSTSQLTTQKTTLTTSESLQKTTKSHQINSRQTILIIACCVGFVLMVLLFLAFLHHLFYWDVWFIYNVCLAKVKGYRSLSTSQTFYDAYISYDTKDASVTDWVINELRYHLEESRDKNVLLCLEERDWDPGLAIIDNLMQSINQSKKTVFVLTKKYAKSWNFKTAFYLALQRLMDENMDVIIFILLEPVLQHSQYLRLRQRICKSSILQWPDNPKAEGLFWQTLRNVVLTENDSRYNNMYVDSIKQYMSLLNCENSCGSSQSESDCCVAMASSCSAVTKDDSVGGTASTGNLSSSFMEEIQGYDVEFDPPLESKYECPICLMALREAVQTPCGHRFCKACIIKSIRDAGHKCPVDNEILLENQLFPDNFAKREILSLMVKCPNEGCLHKMELRHLEDHQAHCEFALMDCPQCQRPFQKFHINIHILKDCPRRQVSCDNCAASMAFEDKEIHDQNCPLANVICEYCNTILIREQMPNHYDLDCPTAPIPCTFSTFGCHEKMQRNHLARHLQENTQSHMRMLA
modifications: CER117, amino acids 1-22 are signal peptide
B2: CER116: Chimeric engulfment receptor: Tim4 binding, Tim4 transmembrane, TRAF6 and TLR8 signaling; SEQ ID NO: 152 (protein)
chain: MSKGLLLLWLVTELWWLYLTPAASEDTIIGFLGQPVTLPCHYLSWSQSRNSMCWGKGSCPNSKCNAELLRTDGTRIISRKSTKYTLLGKVQFGEVSLTISNTNRGDSGVYCCRIEVPGWFNDVKKNVRLELRRATTTKKPTTTTRPTTTPYVTTTTPELLPTTVMTTSVLPTTTPPQTLATTAFSTAVTTCPSTTPGSFSQETTKGSAFTTESETLPASNHSQRSMMTISTDIAVLRPTGSNPGILPSTSQLTTQKTTLTTSESLQKTTKSHQINSRQTILIIACCVGFVLMVLLFLAFLMSLLNCENSCGSSQSESDCCVAMASSCSAVTKDDSVGGTASTGNLSSSFMEEIQGYDVEFDPPLESKYECPICLMALREAVQTPCGHRFCKACIIKSIRDAGHKCPVDNEILLENQLFPDNFAKREILSLMVKCPNEGCLHKMELRHLEDHQAHCEFALMDCPQCQRPFQKFHINIHILKDCPRRQVSCDNCAASMAFEDKEIHDQNCPLANVICEYCNTILIREQMPNHYDLDCPTAPIPCTFSTFGCHEKMQRNHLARHLQENTQSHMRMLAHHLFYWDVWFIYNVCLAKVKGYRSLSTSQTFYDAYISYDTKDASVTDWVINELRYHLEESRDKNVLLCLEERDWDPGLAIIDNLMQSINQSKKTVFVLTKKYAKSWNFKTAFYLALQRLMDENMDVIIFILLEPVLQHSQYLRLRQRICKSSILQWPDNPKAEGLFWQTLRNVVLTENDSRYNNMYVDSIKQY
modifications: CER116, amino acids 1-22 are signal peptide
B3: CER104: Chimeric engulfment receptor: Tim4 binding, Tim4 transmembrane, TLR8 and DAP12 signaling; SEQ ID NO: 139 (protein)
chain: MSKGLLLLWLVTELWWLYLTPAASEDTIIGFLGQPVTLPCHYLSWSQSRNSMCWGKGSCPNSKCNAELLRTDGTRIISRKSTKYTLLGKVQFGEVSLTISNTNRGDSGVYCCRIEVPGWFNDVKKNVRLELRRATTTKKPTTTTRPTTTPYVTTTTPELLPTTVMTTSVLPTTTPPQTLATTAFSTAVTTCPSTTPGSFSQETTKGSAFTTESETLPASNHSQRSMMTISTDIAVLRPTGSNPGILPSTSQLTTQKTTLTTSESLQKTTKSHQINSRQTILIIACCVGFVLMVLLFLAFLHHLFYWDVWFIYNVCLAKVKGYRSLSTSQTFYDAYISYDTKDASVTDWVINELRYHLEESRDKNVLLCLEERDWDPGLAIIDNLMQSINQSKKTVFVLTKKYAKSWNFKTAFYLALQRLMDENMDVIIFILLEPVLQHSQYLRLRQRICKSSILQWPDNPKAEGLFWQTLRNVVLTENDSRYNNMYVDSIKQYYFLGRLVPRGRGAAEAATRKQRITETESPYQELQGQRSDVYSDLNTQRPYYK
modifications: CER104, amino acids 1-22 are signal peptide

What was measured:
[1] = tested on: SCC152 target cells; experiment: Phagocytosis of SCC152 by CD4+ T cell/CER, fluorescence microscopy with hybrid capture; format: cell-based; details: TRAF-domain CERs, 4 hours, 1:1:0.5 (CD8:CD4:target cell); versus CD4+ control + CD8+/E7 TCR
Experimental: (§1) FIG. 28 is a bar graph representing quantification of CD4+ T cell-CER mediated phagocytosis of SCC152 target cells. Results calculated as ((number of phagocytic target events)/(total number of effectors))*100 from 3×3 40× images, 4 hours after initiation of co-culture assay. CD8+ T cells transduced with HPV16 E7 TCR and CD4+ T cells transduced with selected CERs (CER5, CER17, CER19, CER21, CER23, CER26, CER27, CER103b, CER104, CER105, CER106, or CER116) were co-cultured with SCC152 squamous head and neck carcinoma target cells at a 1:1:0.5 ratio for 4 hours and imaged.
as §1, with “29” for “28”, “(median area ratio” for “((number”, “of” for “of phagocytic”, “events in effector cells*% phagocytosis)” for “events)/(total number of effectors))*100”
(§2) FIG. 55 is a bar graph representing quantification of CD4+ T cell-CER mediated phagocytosis of SCC152 target cells. Percent phagocytosis was calculated as ((number of phagocytic target events)/(total number of effector cells))*100. These numbers were calculated from 3×3 images captured by Keyence BZ-X710 fluorescence microscope at 40× resolution, 4 hours after initiation of co-culture assay. CD8+ T cells transduced with HPV16 E7 TCR and CD4+ T cells transduced with a selected CER (CER29, CER30, CER110, CER112, CER113, CER114, CER116, or CER117) were co-cultured with SCC152 target cells at a 1:1:0.5 ratio (CD8:CD4:target cell) for 4 hours and imaged.
as §2, with “56” for “55”, “Adjusted phagocytic index” for “Percent phagocytosis”, “(median area ratio” for “((number”, “of” for “of phagocytic”, “events in” for “events)/(total number of”, “cells*% phagocytosis).” for “cells))*100.”
Phagocytic activity of CD4+ T cell/CER+CD8+ T cell/HPV16 E7 TCR combinations co-cultured with SCC152 cells was visualized and quantified using KEYENCE BZ-X710 fluorescence microscope, […] and hybrid capture software.

[2] = tested on: SCC152 cells; experiment: Magnitude breadth analysis of phagocytosis by CER type (pHrodo red / CELLTRACE violet microscopy); format: cell-based; details: 8 hours co-culture with SCC152, CD8+/E7 TCR 1:1
Experimental: Top image is an enlargement of a cell in the lower left image showing a SCC152 cell engulfed by CER126-transduced CD4+ T cell. […] White arrow indicates CD8+ T cell transduced with E7-specific TCR and that is pHrodo Red negative (lower left panel of FIG. 60B). Software rendition of phagocytosis (lower right panel of FIG. 60B).
Various CER-modified CD4+ T cells were also evaluated for breadth of response to determine whether a particular CER confers a broad phagocytic response of low magnitude (e.g., 10% engulfment in 90% of cells) or a less frequent but strong phagocytic response (e.g., 90% engulfment in 10% of cells) in the host cells. CD8+ T cells were transduced with HPV16 E7 specific TCR as described in Example 1. CD4+ T cells were transduced with lentiviral vectors comprising a CER21, CER27, CER104, CER116, or CER117 nucleic acid. Mock-transduced (vector alone) CD4+ T cell were used as control. CD4+/CER+ and CD8+/E7 TCR+ T cells were stained with CELLTRACE violet. HPV16 E7+ head and neck squamous cell carcinoma cells (SCC152) were stained with pHrodo red. HPV16 E7 TCR transduced CD8+ T cells and selected CER transduced CD4+ T cells were mixed at a 1:1 ratio and co-cultured with SCC152 cells at a 1:1 ratio for 8 hours. Phagocytosis of target SCC152 cells by CER-transduced CD4+ T cells was analyzed by fluorescence microscopy. […] The horizontal axis represents the % area of CER-transduced CD4+ T cells having engulfment or % area of the CER-transduced CD4+ T cells taken up by target SCC152 cells. This measure was rarely above 40% across CER types tested. The vertical axis represents the proportion of CER-transduced CD4+ T cells that were phagocytic. For CER104, about 20% of CER104-transduced CD4+ T cells have more than 10% engulfment. For CER117-transduced CD4+ T cells, less than 10% have more than 10% engulfment.

[3] = tested on: SCC152 target cells; experiment: Lactate dehydrogenase (LDH) cytotoxicity assay in SCC152 co-culture; format: cell-based; details: CD4+/CER + CD8+/HPV16 E7 TCR 1:1; 4 hours co-culture, varying target:effector ratios
Experimental: FIG. 19 is a bar graph showing a lactate dehydrogenase (LDH) cytotoxicity assay performed 4 hours after co-culture of CD8+ T cells transduced with a HPV16 E7 TCR and CD4+ T cells transduced with CER104 at a 1:1 ratio with SCC152 target cells at varying target cell:effector cell ratios (0.5:1, 1:1, 1:2.5, 1:5, 1:10, 1:20).
LDH is a cytosolic enzyme that is released by a cell into cell culture media when the plasma membrane is damaged. Thus, LDH's presence in culture medium is a marker for cell death. LDH assays are capable of detecting low level damage to cell membrane which cannot be detected using other methods. LDH may be detected using colorimetric or fluorometric methods.

[4] = tested on: SCC152 HPV+ Head & Neck Squamous Carcinoma; experiment: SCC152 xenograft in NSG mice, tumor caliper measurements; format: in vivo; details: 3×10^6 CER CD4+ T cells added to 1×10^6 E7 TCR CD8+ T cells; versus E7 TCR CD8+ T cells alone
Excerpt: 1×10^^6 CD8^+ T cells engineered with a HPV E7 specific TCR were infused with or without 3×10^6 CD4+ T cells engineered with CER104. Data represents mean value of tumor caliper measurements (n=5 mice per group).
Cellular immunotherapy composition combination comprising HPV E7 specific TCR modified CD8+ T cells (1×10^6) (as described in Example 1) and hCER104 modified CD4+ T cells (3×10^6) were infused into head neck squamous cell cancer mouse model generated by injecting HPV+ SCC152 cells into NSG mice and compared with SCC152 xenograft mice treated with HPV E7 specific TCR modified CD8+ T cells alone (n=5 mice/treatment group).

Molecule | engulfment of SCC152 target cells (percent phagocytosis, adjusted phagocytic index) [1] | proportion of CER-transduced CD4+ T cells having more than 10% engulfment [2] | cytolytic activity (LDH release) [3] | tumor killing (tumor volume by caliper) [4]
B1 | enhanced engulfment | less than 10% | – | –
B2 | enhanced engulfment | – | – | –
B3 | – | about 20% | enhanced cytolytic activity | enhanced tumor killing in vivo
